Reference: patent US20170267766A1 (PIERRE FABRE MEDICAMENT, published 2017)

Key:
[1] = biological target: T1, monkey IGF-1R (on COS-7 cells) (African green monkey); experiment: cell-based or functional assay
[2] = biological target: T2, rmIGF-1R protein (R&D Systems, cat No 6630-GR/Fc) (murine, UniProt Q60751 31-936); experiment: ELISA, coated rm IGF-1R, SNT 5 ug/ml
T2 construct: extracellular domain; bought; also called murine extracellular domain (ECD) of IGF-1R; not shown: Fc only implied by the catalogue number; not described
T2 sequence (Q60751 31-936): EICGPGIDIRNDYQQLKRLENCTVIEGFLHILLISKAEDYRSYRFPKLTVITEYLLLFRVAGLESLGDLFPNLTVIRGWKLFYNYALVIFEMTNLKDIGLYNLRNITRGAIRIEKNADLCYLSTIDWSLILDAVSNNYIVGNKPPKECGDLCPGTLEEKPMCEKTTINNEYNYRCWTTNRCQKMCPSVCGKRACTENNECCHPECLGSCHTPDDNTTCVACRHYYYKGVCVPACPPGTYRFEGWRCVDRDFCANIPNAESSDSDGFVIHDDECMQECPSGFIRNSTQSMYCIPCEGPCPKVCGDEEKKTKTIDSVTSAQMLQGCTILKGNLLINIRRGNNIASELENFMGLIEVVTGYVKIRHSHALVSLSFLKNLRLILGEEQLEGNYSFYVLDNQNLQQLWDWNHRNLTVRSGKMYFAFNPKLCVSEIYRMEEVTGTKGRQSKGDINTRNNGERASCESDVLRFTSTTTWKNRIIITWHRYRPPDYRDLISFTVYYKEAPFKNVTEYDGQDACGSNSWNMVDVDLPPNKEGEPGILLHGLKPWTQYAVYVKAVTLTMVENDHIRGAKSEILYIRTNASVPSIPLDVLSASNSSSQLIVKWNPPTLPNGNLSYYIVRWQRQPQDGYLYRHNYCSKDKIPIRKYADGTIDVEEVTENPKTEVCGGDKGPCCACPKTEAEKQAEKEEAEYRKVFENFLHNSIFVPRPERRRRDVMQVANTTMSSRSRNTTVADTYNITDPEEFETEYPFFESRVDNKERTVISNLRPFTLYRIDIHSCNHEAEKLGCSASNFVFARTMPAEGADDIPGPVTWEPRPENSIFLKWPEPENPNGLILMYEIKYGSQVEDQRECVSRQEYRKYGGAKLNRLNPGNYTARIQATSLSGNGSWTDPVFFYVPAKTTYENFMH
Description: (§1) In addition three ELISA were performed (either before or after cloning) to study the binding of antibodies on the recombinant human (hIGF-1R) and murine (mIGF-1R) proteins, and on the recombinant human Insulin Receptor (hIR) protein. […] The plates were then blocked with PBS containing 0.5% gelatin (#22151, Serva Electrophoresis GmbH, Heidelberg, Germany) for 2 h at 37° C. Once the saturation buffer discarded by flicking plates, 100 μl of each supernatant dilution were added to the wells (either undiluted hybridoma supernatant either supernatant serial dilutions) and incubated for 1 h at 37° C. […] Then, ELISA plates were washed 3-times and the TMB (#UP664782, Uptima, Interchim, France) substrate is added. After a 10 min incubation time at room temperature, the reaction was stopped using 1 M sulfuric acid and the optical density at 450 nm is measured.

[3] = biological target: T2, rmIGF-1R protein (R&D Systems, cat No …); experiment: ELISA, coated rmIGF-1R (Table 8)
Description: as §1

[4] = biological target: T3, human IGF-1R (native, on cells) (human, UniProt P08069 31-1367); experiment: FACS, MCF7, 4°C, Ab 5 ug/ml
T3 construct: also called hIGF-1R; native IGF-1R on MCF-7 cells
Description: Additionally an internalization assay was performed in order to select only internalizing antibodies. For this assay, the MCF7 tumor cell line was cultured in RMPI 1640 without phenol red with 1% L-glutamine and 10% of […] for 3 days before experiment. Cells were then detached using trypsin and 100 μl of a cell suspension at 4·10⁵ cell/ml are plated in 96-multiwell plates in RPMI1640 without phenol red with 1% L-glutamine and 5% FBS. After a 2 min centrifugation at 2000 rpm, cells were resupended in 50 μl of hybridoma supernatant or control antibody solutions (positive and isotype controls at 1 μg/ml). After a 20 min incubation time at 4° C., cells were centrifuged 2 min at 2000 rpm and resuspended in either cold (4° C.) or warm (37° C.) complete culture medium. Cells were then incubated for 2 hours either at 37° C. or at 4° C. Then cells were washed three times with FACS buffer. An Alexa 488-labeled goat anti-mouse IgG antibody was incubated for 20 minutes and cells were washed three times before FACS analysis on propidium iodide negative cell population.

[5] = biological target: T4, human insulin receptor (on cells) (human, UniProt P06213 28-1382); experiment: FACS on hIR+ transfected cells, 4°C
T4 construct: whole, on cells; on stably transfected cells or on IM9 cells; also called hIR; IR
Description: (§2) In order to verify the absence of binding of both murine and chimeric antibodies on hIR, a stable cell line expressing the human IR was used. The recognition of human cell surface hIR by both murine and chimeric Ab was performed by FACS analyses. Increasing concentrations of either the murine or the chimeric mAbs were incubated on the hIR′ transfected cell line for 20 minutes at 4° C. in FACS buffer (PBS, 0.1% BSA, 0.01% NaN₃). Cells were then washed 3 times and incubated with the appropriate secondary antibody coupled with Alexa 488 before being incubated for 20 additional minutes at 4° C. in the dark and then washed 3 times in FACS buffer. The binding of anti-IGF-1R antibodies was immediately performed on viable cells which were identified using propidium iodide (that stains dead cells). The binding EC₅₀ expressed in molarity (M) was calculated using a nonlinear regression analysis (GraphPad Prims 4.0). […] The c9G4 was introduced as an irrelevant antibody (isotype control).

[6] = biological target: T1, monkey IGF-1R (on COS-7 cells); experiment: FACS on COS-7 cells, 4°C; inset table, axis log [M]
Description: In order to evaluate the binding of anti-IGF-1R antibodies on monkey IGF-1R, the binding of both murine and chimeric anti-hIGF-1R antibodies was evaluated by FACS analyses on COS-7 cell line using increasing antibody concentrations. Cells (1×10⁶ cells/ml) were incubated with anti-IGF-1R antibodies for 20 minutes at 4° C. in FACS buffer (PBS, 0.1% BSA, 0.01% NaN₃). Then, cells were washed 3 times and incubated with the appropriate secondary antibody coupled with Alexa 488 before being incubated for 20 additional minutes at 4° C. in the dark and finally washed 3 times in FACS buffer. The binding of anti-IGF-1R antibodies was immediately evaluated on viable cells identified using propidium iodide (that stains dead cells). The binding EC₅₀ expressed in molarity (M) was calculated using a nonlinear regression analysis (GraphPad Prims 4.0).

[7] = biological target: T5, rhIR protein (R&D Systems, cat No 1544-IR/CF) (human, UniProt P06213-2 28-944); experiment: ELISA, coated rhIR 1 ug/ml
T5 construct: extracellular domain; bought; also called rh Insulin R; recombinant human Insulin Receptor
Description: as §1

[8] = biological target: T3, human IGF-1R (native, on cells); experiment: cell-based or functional assay
[9] = biological target: T3, human IGF-1R (native, on cells); experiment: cell-based or functional assay; remark: listed apart in the source
[10] = biological target: T3, human IGF-1R (native, on cells); experiment: FACS, Tf hIGF1R+ cells, Ab 5 ug/ml
[11] = biological target: T3, human IGF-1R (native, on cells); experiment: cell-based or functional assay; remark: listed apart in the source
[12] = biological target: T3, human IGF-1R (native, on cells); experiment: FACS on MCF-7 cells, 4°C; inset table, axis log [M]
Description: The binding properties of a series of anti-IGF-1R antibodies were evaluated by FACS analyses on the human MCF-7 breast adenocarcinoma cell line (ATCC#HTB-22) using increasing antibody concentrations. For that purpose, cells (1×10⁶ cells/ml) were incubated with anti-IGF-1R antibodies for 20 min. at 4° C. in FACS buffer (PBS, 0.1% BSA, 0.01% NaN₃). They were then washed 3 times and incubated with the appropriate secondary antibody coupled with Alexa 488 for 20 additional minutes at 4° C. in the dark before being washed 3 times in FACS buffer. The binding of anti-IGF-1R antibodies was immediately performed on viable cells which were identified using propidium iodide (that stains dead cells). The maximum of signal intensity obtained with each antibody was designed as Bₘₐₓ and expressed in mean of fluorescence intensity (MFI). The EC₅₀ of binding expressed in molarity (M) was calculated using a nonlinear regression analysis (GraphPad Prims 4.0).

[13] = biological target: T1, monkey IGF-1R (on COS-7 cells); experiment: FACS, Cos-7 (monkey IGF1R+), Ab 5 ug/ml
[14] = biological target: T4, human insulin receptor (on cells); experiment: FACS on IM-9 cells (express hIR), 4°C
Description: as §2
For this FACS analysis, the protocol was the same as the one described previously and murine anti-IGF-1R antibodies were used in order to prevent the cross reactivity of the secondary anti-human Ab (IM9 cells express human Ig on their cell surface).

Binder	% internalisation [1]	ΔMFI [1]	D.O 450 nm [2]	binding result [3]	MFI 4°C [4]	binding result [5]	EC50 [6]	binding result [7]	HalfLife (decay of cell-surface bound antibody on MCF-7 at 37°C) [8]	hIGF-1R phosphorylation in response to IGF-1 (western blot, MCF-7) [9]	MFI [10]	% remaining rh IGF1R [11]	MFI 37°C (internalisation assay, MCF7) [11]	Δ (MFI 4°C - MFI 37°C) [11]	EC50 [12]	MFI [13]	binding result [14]
m208F2 (antibody, V domains shown, murine mAb, hybridoma CNCM I-4757, group G2; also called murine 208F2) VH: QVQLQQSGPELVKPGASVKMSCKASGYTFTSYYIYWVKQRPGQGLEWLGWIWPGDGSTKYNEKFKDKTTLTADKSSNTAYMFLSSLTSEDSAVYFCASPMITPNYAMDYWGQGASVTVSS VL: DIQMTQTTSSLSASLGDRVTISCRASQDISKYLNWYQQQPDGTIKLLIYYTSRLHSGVPSRFSGRGSGTDYSLTISNVEQEDIATYFCQQGSTLPYTFGGGTKLEIK	74%	53 MFI	0.099 D.O 450 nm	no binding	355 MFI	no binding (tested: log [M] about -6.5 (about 3e-7 M))	0.758 nM	no binding	11.1 min (unit from p-0380; none on the sheet)	> 80%	2200 MFI	27%	94 MFI	261 MFI	0.526 nM		
m214F8 (antibody, V domains shown, murine mAb, hybridoma CNCM I-4775, group G2) VH: QVQLQQSGSELVKPGASVKLSCKASGYTFTSYYIHWVKQRPGQGLEWIGWIWPGDGSTKYNERFKGKTTLTADKSSSTAYMFLSSLTSEDSAVYFCASPMITPNYAMDYWGQGASVTVSS VL: DIQMTQTTSSLSASLGDRVTFSCRASQDISKYLNWYQQQPDGTIKLLIYYTSRLHSGVPSRFSGRGSGTDYSLTITNLEQEDIATYFCQQGSALPYTFGGGTKLEIK	71%	76 MFI	0.102 D.O 450 nm	no binding	386 MFI			no binding	16.8 min (unit from p-0380; none on the sheet)	> 80%	2140 MFI	29%	111 MFI	275 MFI		132 MFI	no binding (tested: log [M] about -6.5 (about 3e-7 M))
m213B10 (antibody, V domains shown, murine mAb, hybridoma CNCM I-4774, group G2) VH: QVQLQQSGSELVKPGASVKMSCKASGYTFTSYYIHWVKQRPGQGLEWIGWIWPGDGSTKYNERFKGKTTLTADKSSSTAYMFLSSLTSEDSAVYFCASPMITPNYAMDYWGQGASVTVSS VL: DIQMTQTTSSLSASLGDRVTISCRASQDISKYLNWYQQQPDGTIKLLIYYTSRLHSGVPSRFSGRGSGTDYSLTITNLEQEDIATYFCQQGSALPYTFGGGTKLEIK	74%	84 MFI	0.127 D.O 450 nm	no binding	386 MFI			no binding	12.8 min (unit from p-0380; none on the sheet)	> 80%	2060 MFI	30%	115 MFI	271 MFI		122 MFI	no binding (tested: log [M] about -6.5 (about 3e-7 M))
